Experimental data reported in patent publication US20210386836.

How the values were obtained:
Factor H, P08603 = target: T1, Factor H, P08603
T1 chain: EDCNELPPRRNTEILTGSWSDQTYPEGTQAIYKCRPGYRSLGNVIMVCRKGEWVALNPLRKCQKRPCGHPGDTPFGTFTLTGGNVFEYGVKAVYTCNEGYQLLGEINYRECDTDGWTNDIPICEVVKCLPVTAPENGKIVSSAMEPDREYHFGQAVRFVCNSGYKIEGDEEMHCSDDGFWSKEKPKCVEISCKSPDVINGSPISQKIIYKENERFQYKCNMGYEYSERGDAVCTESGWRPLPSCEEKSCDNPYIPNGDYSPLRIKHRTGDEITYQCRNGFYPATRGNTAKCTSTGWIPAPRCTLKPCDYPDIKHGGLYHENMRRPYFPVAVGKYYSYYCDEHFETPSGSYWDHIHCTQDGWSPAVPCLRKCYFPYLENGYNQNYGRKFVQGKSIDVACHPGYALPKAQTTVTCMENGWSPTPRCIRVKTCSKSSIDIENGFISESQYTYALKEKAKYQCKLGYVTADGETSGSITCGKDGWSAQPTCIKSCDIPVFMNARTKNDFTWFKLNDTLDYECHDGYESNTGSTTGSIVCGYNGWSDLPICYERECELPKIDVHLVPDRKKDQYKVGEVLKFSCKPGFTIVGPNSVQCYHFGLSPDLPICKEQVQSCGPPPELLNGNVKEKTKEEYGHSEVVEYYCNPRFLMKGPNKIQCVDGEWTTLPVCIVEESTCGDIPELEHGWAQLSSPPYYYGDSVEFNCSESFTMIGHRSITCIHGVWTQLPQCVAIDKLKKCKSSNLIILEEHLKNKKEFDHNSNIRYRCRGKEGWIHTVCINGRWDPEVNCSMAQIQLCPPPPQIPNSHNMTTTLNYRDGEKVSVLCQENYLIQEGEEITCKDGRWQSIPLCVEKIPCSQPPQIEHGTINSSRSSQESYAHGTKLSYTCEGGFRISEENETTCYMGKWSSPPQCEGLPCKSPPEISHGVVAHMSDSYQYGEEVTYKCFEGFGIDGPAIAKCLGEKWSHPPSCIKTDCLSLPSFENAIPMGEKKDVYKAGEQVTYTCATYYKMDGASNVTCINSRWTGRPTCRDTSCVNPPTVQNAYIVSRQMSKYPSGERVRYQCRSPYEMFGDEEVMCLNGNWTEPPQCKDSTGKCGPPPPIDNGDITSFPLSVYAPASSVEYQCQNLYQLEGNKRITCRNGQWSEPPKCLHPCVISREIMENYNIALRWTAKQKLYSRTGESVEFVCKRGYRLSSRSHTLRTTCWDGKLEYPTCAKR

[1] = target: T2, C-Reactive protein, P02741
T2 chain: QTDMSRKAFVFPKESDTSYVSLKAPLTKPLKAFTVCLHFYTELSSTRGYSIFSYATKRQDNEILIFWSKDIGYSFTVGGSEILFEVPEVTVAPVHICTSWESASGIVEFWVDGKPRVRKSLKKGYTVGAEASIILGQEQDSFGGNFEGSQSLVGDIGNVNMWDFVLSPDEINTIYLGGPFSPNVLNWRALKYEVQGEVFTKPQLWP

C2, P06681 = target: T3, C2, P06681
T3 chain: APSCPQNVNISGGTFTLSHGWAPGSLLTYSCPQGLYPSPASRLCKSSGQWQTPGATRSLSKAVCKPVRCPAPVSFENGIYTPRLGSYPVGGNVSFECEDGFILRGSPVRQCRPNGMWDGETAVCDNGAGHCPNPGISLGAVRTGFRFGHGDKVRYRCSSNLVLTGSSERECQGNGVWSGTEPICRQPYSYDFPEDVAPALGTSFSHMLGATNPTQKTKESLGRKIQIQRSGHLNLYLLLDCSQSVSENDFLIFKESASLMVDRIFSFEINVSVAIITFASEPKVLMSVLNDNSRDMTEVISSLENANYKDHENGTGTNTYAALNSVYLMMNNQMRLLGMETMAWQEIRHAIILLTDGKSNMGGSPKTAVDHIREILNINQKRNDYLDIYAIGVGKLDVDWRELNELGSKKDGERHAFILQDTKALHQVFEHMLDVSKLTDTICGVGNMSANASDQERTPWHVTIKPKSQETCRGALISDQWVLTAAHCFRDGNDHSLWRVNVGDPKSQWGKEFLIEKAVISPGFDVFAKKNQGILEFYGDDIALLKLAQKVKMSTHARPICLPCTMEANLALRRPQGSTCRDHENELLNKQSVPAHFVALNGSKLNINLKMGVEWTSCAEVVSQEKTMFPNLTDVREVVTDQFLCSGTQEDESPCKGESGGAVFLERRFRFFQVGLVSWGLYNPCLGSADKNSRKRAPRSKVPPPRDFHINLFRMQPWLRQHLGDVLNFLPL

B1: PrtI(ProB) (protein)
chain: AIGETSVQNVKVSVAKNESDSQKFNNSQNLEQKTPQAAAANQNGSQVQNDHTETQLQNQQTTQSQVTQAHTEENNASSIPEPANQADHVKGNVQSAWDQGYKGQNTVVAVIDSGADTSHKDFQTMPSNPKLKQEDVQSKIDQQGYGKYVNEKFPYVYNYADRDNDYIKSDDNNQXNDSPHGQHVSGIIAADGHPEGDQQYVVGVAPEAQLMQLRVFGQFSDEKTDDVARAIYDATNLGADVIQMSLGQGVADQQLTNIEQKAVQYAIDHGVFVSISASNNGNSASVDNPSKVTAKGYGSGSEAGNYEPLNSGTVANPGASKNALTVAAETSGTGKDSDMASFSSWGPLSDFSLKPDLSAPGYQVVSTVNDNQYQTMSGTSMAGPFAAGSAALVIQRLKQTNPELKGAELVAATKALLMNSAKVQTQNGYTTPVSPRRQGAGQIDVGAATANPVYVTAADGTSSLSLRQVDEKTTFTLTFHNLTDQEQSYSFNDLGGGYTEQRDPDSGVFHEVQLAGAHVNGVGNFTLAPKEVKDLQYTLDLQGLNKNQPVEGWLHFTNDKDKSTVVVPYLAYYGDLTSENVFDQNANEEKPDIQGNRFVNENNYPLGVTDQESLKQLVNVDSDYNWQEVAKLYESGKVAFSPNDDHQSDLIKPYAYLKQNVKDLKVEILDAKGNVVRVVSDVQGVDKSYDESGVTKDASLSVSMRDNPDAFEWDGKVYDTKTGQMVTAPDGQYTYRFVATLWNEGPNQKQTADFPVVVDTQAPSLSVKYDSATHTLSGNYEDKGAGFTDYSYVTVQVNDKVFGYKLNEGESGFDNSEKTKGHFNFTLSSDALDALSGSLNKVSVTLSDVANNTTVKTVDVPAVKDQPAVSVWNATEGVEFNKNSKDYNKENDTYTLYGSAAQDFYLNGALVQVRDGKYEVPVKTTTQDLVFSTDQAGKNVLKSFTTFTPKAFFNWQNVDGFDGNFGVNIYSVKTNDPNNAVVQAAVPLGKNVKAYAQDYFTGEVYKGQVENGVATFHVHTSINQGEDGIFKRALLTGWSEVDGPAYNDKQVTSKAGVASSNHLGVYYTTDKVNRKVYTDRADLGVDVQDEAADLSSFGPTAYPGHALADLTTRTDPNPAIHFDYLNDNDTTRFGQNAVTDGYYDSVTKKFTVTGHVDPEVKSLTVLGDSSDENAPQNQVKLGKDGKFSFSFTTENVGQRPVAYIYTDQNGQKVRGTLNVVLDTVAPTLNVDQVNGNELEVKTNNPLFKLSGVVNDNLDGYRLYVNGNNIYREFLNSGYNKLAGLNTDGTDVNPYGPHNFEESFNLNDDNNQPTTHVFTIYVVDQVGNKVEKKIAVNYDPDYVA
modifications: not fully specified; X: residue not identified in the source
Factor H, P08603
  proteolytic activity (SDS-PAGE): None of the complement proteins tested show evidence of breakdown
HSA, P02768
  digestion (SDS-PAGE): did not digest
Factor XI
  digestion (SDS-PAGE): did not digest
BSA, P02769
Sequence of BSA, P02769 (P02769 25-607): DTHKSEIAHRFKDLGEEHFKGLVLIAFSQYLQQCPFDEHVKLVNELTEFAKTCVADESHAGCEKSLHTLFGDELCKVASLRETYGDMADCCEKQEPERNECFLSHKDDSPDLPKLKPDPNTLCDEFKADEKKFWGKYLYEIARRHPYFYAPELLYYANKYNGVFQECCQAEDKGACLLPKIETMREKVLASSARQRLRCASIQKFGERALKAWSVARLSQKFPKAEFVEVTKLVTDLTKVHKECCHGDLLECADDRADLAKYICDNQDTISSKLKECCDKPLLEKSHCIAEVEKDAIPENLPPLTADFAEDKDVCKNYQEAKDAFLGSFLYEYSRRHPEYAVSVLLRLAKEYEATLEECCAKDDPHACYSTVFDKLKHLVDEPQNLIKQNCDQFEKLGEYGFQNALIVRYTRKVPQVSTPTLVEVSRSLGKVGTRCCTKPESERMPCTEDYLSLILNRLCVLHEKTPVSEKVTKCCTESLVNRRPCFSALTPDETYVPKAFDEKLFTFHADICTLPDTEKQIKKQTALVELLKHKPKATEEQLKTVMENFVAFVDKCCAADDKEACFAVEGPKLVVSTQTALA
  digestion (SDS-PAGE): did not digest
Factor B, P00751
Sequence of Factor B, P00751 (P00751 26-764): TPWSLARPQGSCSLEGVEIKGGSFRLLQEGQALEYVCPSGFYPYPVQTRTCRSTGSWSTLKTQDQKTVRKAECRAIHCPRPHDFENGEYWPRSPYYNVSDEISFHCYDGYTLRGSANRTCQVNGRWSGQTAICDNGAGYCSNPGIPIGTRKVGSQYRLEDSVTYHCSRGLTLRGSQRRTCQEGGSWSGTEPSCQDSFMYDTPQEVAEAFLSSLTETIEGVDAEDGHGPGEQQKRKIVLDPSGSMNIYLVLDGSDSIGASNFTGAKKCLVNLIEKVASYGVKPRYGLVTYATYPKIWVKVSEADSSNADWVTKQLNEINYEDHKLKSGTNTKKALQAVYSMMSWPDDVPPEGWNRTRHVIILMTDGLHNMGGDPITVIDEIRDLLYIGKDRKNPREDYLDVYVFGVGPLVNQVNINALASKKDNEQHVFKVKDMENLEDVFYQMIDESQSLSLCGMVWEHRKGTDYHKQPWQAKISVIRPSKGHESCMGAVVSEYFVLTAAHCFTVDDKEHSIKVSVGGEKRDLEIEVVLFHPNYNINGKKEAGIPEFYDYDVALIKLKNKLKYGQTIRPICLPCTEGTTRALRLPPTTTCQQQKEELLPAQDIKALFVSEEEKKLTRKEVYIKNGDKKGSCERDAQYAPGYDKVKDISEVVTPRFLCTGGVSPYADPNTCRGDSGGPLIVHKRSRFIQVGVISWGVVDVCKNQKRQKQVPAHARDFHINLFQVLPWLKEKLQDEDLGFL
  proteolytic activity (SDS-PAGE): None of the complement proteins tested show evidence of breakdown
C3a, P01024
  protein cleavage assay (SDS-PAGE): has activities against
  proteolytic activity (control of enzyme stock): shown to be active against C3a
C4
  proteolytic activity (SDS-PAGE): None of the complement proteins tested show evidence of breakdown
IL-1β
  protein cleavage assay (SDS-PAGE): has activities against
TNF-α
  protein cleavage assay (SDS-PAGE): has activities against
C5, P01031
  proteolytic activity (SDS-PAGE): None of the complement proteins tested show evidence of breakdown
Mouse C3a, P01027
  protein cleavage assay (SDS-PAGE): has activities against
[1]
  proteolytic activity (SDS-PAGE): None of the complement proteins tested show evidence of breakdown
Factor XIII
  digestion (SDS-PAGE): did not digest
C2, P06681
  proteolytic activity (SDS-PAGE): None of the complement proteins tested show evidence of breakdown
C3, P01024
  proteolytic activity (SDS-PAGE): None of the complement proteins tested show evidence of breakdown
IL-10
  protein cleavage assay (SDS-PAGE): has activities against
